Experimental data published in patent publication US20220031857A1 (OSSIANIX, published 2022).

Legend:
Experiment in all cases: phage ELISA
[1] = target: T1, recombinant human TfR1 (transferrin receptor 1) (human, UniProt P02786 89-760)
T1 construct: Bought recombinant His-tagged protein; also called hTfR1

human serum albumin = target: T2, human serum albumin (human, UniProt P02768 25-609)
T2 construct: Negative control protein; also called HSA

[2] = target: T3, recombinant mouse TfR1 (transferrin receptor 1) (mouse, UniProt Q62351 89-763)
T3 construct: Bought recombinant His-tagged protein; also called mTfR1
T3 sequence (Q62351 89-763 limits assumed): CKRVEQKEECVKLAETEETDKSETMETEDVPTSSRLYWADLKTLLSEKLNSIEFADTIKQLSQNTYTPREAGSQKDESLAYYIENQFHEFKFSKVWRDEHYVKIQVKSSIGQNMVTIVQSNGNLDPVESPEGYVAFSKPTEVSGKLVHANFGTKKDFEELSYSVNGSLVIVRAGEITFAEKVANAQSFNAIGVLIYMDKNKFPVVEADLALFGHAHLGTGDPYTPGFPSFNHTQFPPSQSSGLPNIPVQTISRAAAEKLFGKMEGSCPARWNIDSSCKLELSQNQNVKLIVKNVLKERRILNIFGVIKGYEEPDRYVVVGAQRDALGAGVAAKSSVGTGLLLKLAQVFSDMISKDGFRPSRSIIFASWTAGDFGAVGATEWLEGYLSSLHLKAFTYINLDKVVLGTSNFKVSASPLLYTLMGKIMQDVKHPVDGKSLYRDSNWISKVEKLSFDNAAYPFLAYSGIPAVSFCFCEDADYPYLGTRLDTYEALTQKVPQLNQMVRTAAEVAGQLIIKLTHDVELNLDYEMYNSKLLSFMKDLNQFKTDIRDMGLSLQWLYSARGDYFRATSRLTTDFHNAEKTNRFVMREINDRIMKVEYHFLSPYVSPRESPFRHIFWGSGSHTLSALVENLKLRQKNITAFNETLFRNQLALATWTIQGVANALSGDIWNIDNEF

recombinant mouse TfR2 = target: T4, recombinant mouse TfR2 (mouse, UniProt Q9JKX3 103-798, limits assumed)
T4 construct: Negative control protein
T4 sequence (looked up): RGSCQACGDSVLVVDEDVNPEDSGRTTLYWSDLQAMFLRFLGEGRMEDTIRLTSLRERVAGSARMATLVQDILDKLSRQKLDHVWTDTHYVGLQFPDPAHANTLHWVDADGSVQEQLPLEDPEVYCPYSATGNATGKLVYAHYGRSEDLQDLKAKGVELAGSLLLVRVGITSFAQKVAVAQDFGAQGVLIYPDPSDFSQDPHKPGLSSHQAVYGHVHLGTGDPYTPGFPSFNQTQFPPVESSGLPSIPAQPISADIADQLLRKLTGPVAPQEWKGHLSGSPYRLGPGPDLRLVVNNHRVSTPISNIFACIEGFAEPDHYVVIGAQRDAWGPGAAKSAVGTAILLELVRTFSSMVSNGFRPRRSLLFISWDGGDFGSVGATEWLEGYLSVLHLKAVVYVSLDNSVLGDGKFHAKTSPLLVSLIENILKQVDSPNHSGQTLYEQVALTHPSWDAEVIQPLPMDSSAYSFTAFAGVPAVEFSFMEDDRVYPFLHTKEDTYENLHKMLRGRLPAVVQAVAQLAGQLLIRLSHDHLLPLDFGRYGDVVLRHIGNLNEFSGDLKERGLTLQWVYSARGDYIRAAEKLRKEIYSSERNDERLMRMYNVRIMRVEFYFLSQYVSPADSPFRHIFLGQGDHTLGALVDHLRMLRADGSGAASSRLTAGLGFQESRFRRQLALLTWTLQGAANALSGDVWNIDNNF

T1 sequence (P02786 89-760 limits assumed): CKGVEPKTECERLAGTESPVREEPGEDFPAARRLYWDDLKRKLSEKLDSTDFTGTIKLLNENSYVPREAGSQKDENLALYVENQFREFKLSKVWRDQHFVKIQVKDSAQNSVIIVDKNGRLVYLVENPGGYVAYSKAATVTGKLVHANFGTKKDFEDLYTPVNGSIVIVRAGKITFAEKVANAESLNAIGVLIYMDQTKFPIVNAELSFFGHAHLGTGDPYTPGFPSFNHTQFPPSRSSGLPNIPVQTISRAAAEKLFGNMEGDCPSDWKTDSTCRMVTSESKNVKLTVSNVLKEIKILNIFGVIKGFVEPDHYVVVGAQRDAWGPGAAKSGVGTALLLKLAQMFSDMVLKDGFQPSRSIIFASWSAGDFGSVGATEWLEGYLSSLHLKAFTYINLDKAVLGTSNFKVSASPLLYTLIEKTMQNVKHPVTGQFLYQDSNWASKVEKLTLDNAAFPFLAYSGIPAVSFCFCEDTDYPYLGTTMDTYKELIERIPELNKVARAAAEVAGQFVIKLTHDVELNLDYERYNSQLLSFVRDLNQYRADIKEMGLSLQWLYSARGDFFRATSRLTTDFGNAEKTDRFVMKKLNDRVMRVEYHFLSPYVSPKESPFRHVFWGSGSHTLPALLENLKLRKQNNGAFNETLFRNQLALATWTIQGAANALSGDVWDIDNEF
T2 sequence (P02768 25-609 limits assumed): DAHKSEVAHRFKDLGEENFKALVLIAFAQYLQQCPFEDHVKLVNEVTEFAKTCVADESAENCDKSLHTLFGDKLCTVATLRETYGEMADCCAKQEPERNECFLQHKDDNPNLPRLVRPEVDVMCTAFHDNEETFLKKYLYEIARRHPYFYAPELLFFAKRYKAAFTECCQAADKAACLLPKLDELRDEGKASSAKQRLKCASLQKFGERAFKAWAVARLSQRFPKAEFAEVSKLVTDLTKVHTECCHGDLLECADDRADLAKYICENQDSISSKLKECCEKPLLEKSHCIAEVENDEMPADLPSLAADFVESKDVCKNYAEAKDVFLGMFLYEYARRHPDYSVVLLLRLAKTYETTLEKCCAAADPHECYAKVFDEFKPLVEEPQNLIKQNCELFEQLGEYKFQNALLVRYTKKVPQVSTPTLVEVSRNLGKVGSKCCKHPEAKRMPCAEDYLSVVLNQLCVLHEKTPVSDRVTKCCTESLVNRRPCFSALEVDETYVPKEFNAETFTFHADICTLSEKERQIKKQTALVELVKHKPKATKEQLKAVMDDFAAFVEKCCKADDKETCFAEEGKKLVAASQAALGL

| Binder | binding result [1] | binding result (human serum albumin) | binding result [2] | binding result (recombinant mouse TfR2) |
| --- | --- | --- | --- | --- |
| SEQ ID NO 4 (VNAR clone displayed on phage) (VNAR, shark VNAR domain on M13 phage; coat-protein fusion not described) VNAR: ARVDQTPQTITKETGESLTINCVLRDSNCALSSTYWYRKKSGSTNEENISKGGRYVETVNSGSKSFSLKINDLTVEDSGTYRCNVQFTAALWCEAVLDVYGGGTVVTVNA | binds | no binding | binds | – |
| SEQ ID NO 47 (VNAR clone displayed on phage) (VNAR, shark VNAR domain on M13 phage; coat-protein fusion not described) VNAR: ARVDQTPRSVTKETGESLTINCVLRDASYALGSTCWYRKKSGSTNEESISKGGRYVETVNSGSKSFSLRINDLTVEDGGTYRCGAAIQGFWAGRCDNLPGKCVMQVSNAAACGDGTAVTVNA | binds | no binding | binds | no binding |
| SEQ ID NO 51 (VNAR clone displayed on phage) (VNAR, shark VNAR domain on M13 phage; coat-protein fusion not described) VNAR: ARVDQTPRSVTKETGESLTINCVLRDASYALGSTCWYRKKSGSTNEESISKGGRYVETVNSGSKSFSLRINDLTVEDSGTYRCNVIQYLYLGSYFACDVYGGGTVVTVNA | binds | no binding | binds | no binding |
| SEQ ID NO 3 (VNAR clone displayed on phage) (VNAR, shark VNAR domain on M13 phage; coat-protein fusion not described) VNAR: ARVDQTPQTITKETGESLTINCVLRDNNCALSTTYWYRKKSGSTNEENISKGGRYVETVNSGSKSFSLKINDLTVEDSGTYRCNVTGYFRSTCLWRDVYGGGTAVTVNA | binds | no binding | binds | – |
| SEQ ID NO 42 (VNAR clone displayed on phage) (VNAR, shark VNAR domain on M13 phage; coat-protein fusion not described) VNAR: ARVDQTPRSVTKETGESLTINCVLRDASYALGSTCWYRKKSGSTNEESISKGGRYVETVNSGSKSFSLRINDLTVEDGGTYRCGVCEMQLIAVDSCDHTLDDGLCGGVYAACGDGTAVTVNA | binds | no binding | binds | no binding |
| SEQ ID NO 1 (VNAR clone displayed on phage) (VNAR, shark VNAR domain on M13 phage; coat-protein fusion not described; also called clone 1) VNAR: ARVDQTPQTITKETGESLTINCVLRDNNCALSTTYWYRKKSGSTNEENISKGGRYVETVNSGSKSFSLKINDLTVEDSGTYRCNVRDVQACGNDWVWLDVYGGGTVVTVNA | – | no binding | – | no binding |
| SEQ ID NO 11 (VNAR clone displayed on phage) (VNAR, shark VNAR domain on M13 phage; coat-protein fusion not described; also called clone 11) VNAR: ARVDQTPQTITKETGESLTINCVLRDSNCALPSTHWYRKKSGSTNEESISKGGRYVETVNSGSKSFSLRINDLTVEDSGTYRCKVLNFFTHTCVQVQKYDVYGGGTAVTVNA | binds | no binding | – | no binding |
| SEQ ID NO 43 (VNAR clone displayed on phage) (VNAR, shark VNAR domain on M13 phage; coat-protein fusion not described) VNAR: ARVDQTPRSVTKETGESLTINCVLRDASYALGSTCWYRKKSGSTNEESISKGGRYVETVNSGSKSFSLRINDLTVEDGGTYRCGVYGGTHQGLCGCDWQLRFSLCGDGRAACGDGTAVTVNA | binds | no binding | binds | no binding |
| SEQ ID NO 9 (VNAR clone displayed on phage) (VNAR, shark VNAR domain on M13 phage; coat-protein fusion not described) ARVDQTPQTITKETGESLTINCVLRDSNCALPSTYWYRKKSGSTNEARISKGGRYVETVNSGSKSFSLRINDLTVEDSGTIDARYRLSASAVLYQSYVDVYGGGTAVTVNA | binds | no binding | binds | – |
| SEQ ID NO 45 (VNAR clone displayed on phage) (VNAR, shark VNAR domain on M13 phage; coat-protein fusion not described) VNAR: ARVDQTPRSVTKETGESLTINCVLRDASYALGSTCWYRKKSGSTNEESISKGGRYVETVNSGSKSFSLRINDLTVEDGGTYRCGVCESSFCSLPYDCDSSSAGSVIQPFGHIVSLAACGDGTAVTVNA | binds | no binding | binds | no binding |
| SEQ ID NO 8 (VNAR clone displayed on phage) (VNAR, shark VNAR domain on M13 phage; coat-protein fusion not described) VNAR: ARVDQTPQTITKETGESLTINCVLRDSNCELSSTYWYRKKSGSTNEARISKGGRYVETVNSGSKSFSLRINDLTVEDSGTYRCNVQYFLCHFVGDVYGDGTAVTVNA | binds | no binding | binds | – |
| SEQ ID NO 7 (VNAR clone displayed on phage) (VNAR, shark VNAR domain on M13 phage; coat-protein fusion not described; also called clone 7) VNAR: ARVDQTPQTITKETGESLTINCVLRDSNCELSSTYWYRKKSGSTNEARISKGGRYVETVNSGSKSFSLKINDLTVEDSGTYRCNVLTTDSYDLGDVYGDGTVVTVNA | – | no binding | – | no binding |
| SEQ ID NO 44 (VNAR clone displayed on phage) (VNAR, shark VNAR domain on M13 phage; coat-protein fusion not described) VNAR: ARVDQTPRSVTKETGESLTINCVLRDASYALGSTCWYRKKSGSTNEESISKGGRYVETVNSGSKSFSLRINDLTVEDGGTYRCGVCQCWSANVWVDCDMTSTSIRMRDGSRSNARAACGDGTAVTVNA | binds | no binding | binds | no binding |
| SEQ ID NO 46 (VNAR clone displayed on phage) (VNAR, shark VNAR domain on M13 phage; coat-protein fusion not described) VNAR: ARVDQTPRSVTKETGESLTINCVLRDASYALGSTCWYRKKSGSTNEESISKGGRYVETVNSGSKSFSLRINDLTVEDGGTYRCGVCSDYGLQTTGQQAACGDGTAVTVNA | – | no binding | – | no binding |
| SEQ ID NO 2 (VNAR clone displayed on phage) (VNAR, shark VNAR domain on M13 phage; coat-protein fusion not described; also called clone 2) VNAR: ARVDQTPQTITKETGESLTINCVLRDNNCALSTTYWYRKKSGSTNEENISKGGRYVETVNSGSKSFSLKINDLTVEDSGTYRCNVFGVDNGWWCDVYGGGTVVTVNA | – | no binding | – | no binding |
| SEQ ID NO 10 (VNAR clone displayed on phage) (VNAR, shark VNAR domain on M13 phage; coat-protein fusion not described; also called clone 10) VNAR: ARVDQTPQTITKETGESLTINCVLRDSNCALSSTYWYRKKSGSTNEENISKGGRYVETVNSGSKSFSLRINDLTVEDSGTYRCNVVQYPSYNNYFWCDVYGDGTAVTVNA | – | no binding | – | no binding |
| SEQ ID NO 41 (VNAR clone displayed on phage) (VNAR, shark VNAR domain on M13 phage; coat-protein fusion not described) VNAR: ARVDQTPQTITKETGESLTINCVLRDSNCALSSTLWYRTKSGSRNEESISKGGRYVETVNSGSKSFSLKINDLTVEDSGTYRCKVCRQCCVATCDDLSLLCDVYGDGTAVTVNA | binds | – | binds | no binding |
| SEQ ID NO 48 (VNAR clone displayed on phage) (VNAR, shark VNAR domain on M13 phage; coat-protein fusion not described) VNAR: ARVDQTPRSVTKETGESLTINCVLRDASYELGSTCWYRKKSGSTNEESISKGGRYVETVNSGSKSFSLRINDLTVEDGGTYRCGASLQCGNCELCDREQLQCGGQRGQLAACGDGTAVTVNA | binds | no binding | binds | no binding |
| SEQ ID NO 39 (VNAR clone displayed on phage) (VNAR, shark VNAR domain on M13 phage; coat-protein fusion not described; also called clone 39) ARVDQTPQTITKETGESLTINCVLRDSNCALSSTLWYRTKSGSRNEESISKGGRYVETVNSGSKSFSLKINDLTVEDSGTYRCNVQGMVYDGSSFWWCDVYGDSTAVTVNA | – | no binding | – | no binding |
| SEQ ID NO 5 (VNAR clone displayed on phage) (VNAR, shark VNAR domain on M13 phage; coat-protein fusion not described) VNAR: ARVDQTPQTITKETGESLTINCVLRDSNCALSSTYWYRKKSGSTNEENISKGGRYVETVNSGSKSFSLKINDLTVEDSGTYRCNVQKGQHLQCHVAVQDVYGGGTAVTVNA | binds | no binding | binds | – |
| SEQ ID NO 6 (VNAR clone displayed on phage) (VNAR, shark VNAR domain on M13 phage; coat-protein fusion not described) VNAR: ARVDQTPQTITKETGESLTINCVLRDSNCALSSTYWYRKKSDSTNEESISKGGRYVETVNSGSKSFSLRINDLTVEDSGTYRCNVQWWLRCGYFKDVYGGGTVVTVNA | binds | no binding | binds | – |
| SEQ ID NO 50 (VNAR clone displayed on phage) (VNAR, shark VNAR domain on M13 phage; coat-protein fusion not described) VNAR: ARVDQTPRSVTKETGESLTINCVLRDASYALGSTCWYRKKSGSTNEESISKGGRYVETVNSGSKSFSLRINDLTVEDGGTYRCGVMNNVSQTWVRCDSQVMSQQCVQQSAACGDGTAVTVNA | binds | no binding | binds | no binding |
| SEQ ID NO 12 (VNAR clone displayed on phage) (VNAR, shark VNAR domain on M13 phage; coat-protein fusion not described; also called clone 12) VNAR: ARVDQTPQTITKETGESLTINCVLRDSICALSSTHWYRKKSGSTNEESISKGGRYVETVNSGSKSFSLRINDLTVEDSGTYRCKVVRSGVGPCWADVYGGGTAVTVNA | – | no binding | – | no binding |
| SEQ ID NO 49 (VNAR clone displayed on phage) (VNAR, shark VNAR domain on M13 phage; coat-protein fusion not described) VNAR: ARVDQTPRSVTKETGESLTINCVLRDASYELGSTCWYRKKSGSTNEESISKGGRYVETVNSGSKSFSLRINDLTVEDGGTYRCGVISQYKSYTLWCDALYRSLGCECARAACGDGTAVTVNA | binds | no binding | binds | no binding |
